We go through 7 molecules from US9574016B2, “Complex of bi-specific antibody and digoxigenin conjugated to a therapeutic or diagnostic agent” (Hoffmann-La Roche Inc., priority 2009, dated 2017).

For data set [1], the system named is CD22 positive Raji and Ramos cells. Put plainly: FACS analysis with <CD22>-<DIG> and DIG-Cy5. Type of data set: cell-based. As to conditions: DIG-Cy5 66.4 nM. As for the experimental part: For these analyses we used CD22 positive Raji and Ramos cells and the bispecific <CD22>-<DIG> antibody. 3×10^5 cells per well of a 96-well-plate were incubated with 5 ng/ml of the <CD22>-<DIG> antibody in FACS buffer (PBS containing 5% FCS). After washing the cells were incubated with DIG-Cy5 in a final concentration of 66.4 nM. After another washing step cells were analysed with the FACS canto II (BD Biosciences).

Data set [2] deals with IGF1R expressing tumors (H322M cells). The experiment in a line: NIRF tumor imaging with Dig-Cy5 complexes, H322M xenograft. Type of data set: in vivo, mice. As to conditions: 30 min, i.v. As for the experimental part:
To analyze if the specific antigen binding functionality of the antibody-complexes can be utilized to specifically deliver imaging reagents to tumor cells, we performed Near Infrared Fluorescence Imaging Studies (NIRF) in vivo. […] These xenografts were either expressing the antigen Her2 (KPL4 cells) or the antigen IGF1R (H322M cells). Subsequently NIRF imaging was performed by using the Maestro system from CRI. Animals were placed in a measuring chamber and the fluorescence was measured over a defined spectral wavelength array, depending on the dye. Spectral information of each pixel of the obtained image was analyzed by a special software which allows to separate different pre-defined spectra, e.g. autoflourescence and the signal of the dye. Theses separated specific signals were quantified by the Maestro software in order to compare different samples.

Data set [3] can be described thus: Excitation and emission spectra. It counts as physicochemical. The text has this: To evaluate whether digoxygenation of Cy5 alters its fluorescence features, we compared the excitation and emission spectra of Cy5 and compared it with the spectra of the newly generated Dig-Cy5 and with Dig-Cy5 within a complex with bispecific antibodies. […] We conclude that Dig-Cy5 and —complexes can be applied for antibody-mediated targeting and in vivo imaging.

In data set [4] the test system is H322M (low surface Her2) and KPL4 (high surface Her2) cells. The experiment in a line: CytoTox-Glo assay of DIG-peptide-<Her2>-<Dig> complexes. Type of data set: cell-based, human. Conditions: 48 hours. The text has this: To analyze whether the <Her2>-<Dig>-Dig-Peptide complexes, and <IGF1R>-<Dig>-Dig-Peptide complexes mediate specific targeting of their payload towards antigen expressing cells, we made use of the fact that the FALLv1 and Fam5b peptides are cytotoxic. […] To measure the number of dead cells, the CytoTox-Glo assay (Promega Madison, Wis.) was used. To analyze the specificity of the targeting, two cell lines were used: H322M which have low levels of surface Her2 and KPL4 which have high levels of surface Her2.
For these assays, H322M cells were seeded at a density of 15.000 cells per well in 96 well plates. The cells were incubated for 24 hours at 37° C., 5% CO2 and 85% humidity in RPMI with 10% FCS, Na+Pyrovate, L-Glutamine and NEAA mix. KPL4 cells were seeded at a density of 7.000 cells per well in 96 well plates. The cells were incubated for 24 hours at 37° C., 5% CO2 and 85% humidity in RPMI with 10% FCS, and L-Glutamine. […] The cells were incubated for further 48 hours. After this period, the cells were treated with the CytoTox-Glo-assay reagent according to the manufacturers instructions. In brief, this assay detects dead cells via the presence of a protease in the medium that cleaves a flurogenic peptide in the reagent. The luminescence of this assay therefore represents dead cells. The 96 well plates were then analyzed in a InfiniteF200 luminescence reader (Tecan Austria, Gröding).

The subject of a further data set is DIG-siRNA2349. Put plainly: SPR study, binding to DIG-siRNA2349. Conditions: analyte DIG-siRNA2349; listed as <DIG>M-19-11. On the procedure: (§1) For that, binding properties of the recombinant <Dig> derivatives were analyzed by surface plasmon resonance (SPR) technology using a Biacore T100 or Biacore 3000 instrument (GE Healthcare Bio-Sciences AB, Uppsala). This system is well established for the study of molecule interactions. It allows a continuous real-time monitoring of ligand/analyte bindings and thus the determination of association rate constants (ka), dissociation rate constants (kd), and equilibrium constants (KD) in various assay settings. SPR-technology is based on the measurement of the refractive index close to the surface of a gold coated biosensor chip. Changes in the refractive index indicate mass changes on the surface caused by the interaction of immobilized ligand with analyte injected in solution. If molecules bind to immobilized ligand on the surface the mass increases, in case of dissociation the mass decreases. To perform the binding studies capturing anti-human IgG antibody was immobilized on the surface of a CM5 biosensor chip using amine-coupling chemistry. Flow cells were activated with a 1:1 mixture of 0.1 M N-hydroxysuccinimide and 0.1 M 3-(N,N-dimethylamino)propyl-N-ethylcarbodiimide at a flow rate of 5 μl/min. […] A reference control flow cell was treated in the same way but with vehicle buffers only instead of the capturing antibody. […]

Data set [5] concerns the target siRNA-DIG (Eg5-siRNA-DIG). Put plainly: SPR (Biacore) binding to mono-digoxygenated siRNA. Conditions: 25° C. (In general: Surface plasmon resonance follows binding to a sensor surface in real time, without labels.)
Procedure: (§2) For that, binding properties of the recombinant <Dig> derivatives were analyzed by surface plasmon resonance (SPR) technology using a Biacore T100 or Biacore 3000 instrument (GE Healthcare Bio-Sciences AB, Uppsala). […] It allows a continuous real-time monitoring of ligand/analyte bindings and thus the determination of association rate constants (ka), dissociation rate constants (kd), and equilibrium constants (KD) in various assay settings. SPR-technology is based on the measurement of the refractive index close to the surface of a gold coated biosensor chip. Changes in the refractive index indicate mass changes on the surface caused by the interaction of immobilized ligand with analyte injected in solution. If molecules bind to immobilized ligand on the surface the mass increases, in case of dissociation the mass decreases. To perform the binding studies capturing anti-human IgG antibody was immobilized on the surface of a CM5 biosensor chip using amine-coupling chemistry. […]
(§3) Anti-mouse IgG antibody was immobilized on the surface of a CM5 biosensor chip in the same fashion as described above. […] The samples to be analyzed were diluted in HBS-P (10 mM HEPES, pH 7.4, 150 mM NaCl, 0.005% Surfactant P20) and injected at a flow rate of 5 μl/min. […] Signals were detected at a rate of one signal per second.
(§4) The samples to be analyzed were diluted in HBS-P and injected at a flow rate of 5 μl/min. […]
In data set [6] the target is siRNA-(2x)DIG (Eg5-siRNA-(2×)DIG). Put plainly: SPR (Biacore) binding to bi-digoxygenated siRNA. As to conditions: 25° C.
Procedure: as §2, §3, §4
Another data set has as its system DIG-Myoglobin. The experiment in a line: SPR study, binding to DIG-myoglobin. On the procedure:
as §1, with “antibody. Surfaces were blocked with an injection of 1 M ethanolamine/HCl pH 8.5. To compare the binding of the humanized protein variants with that of the murine <Dig> IgG from the original hybridoma 19-11, capturing anti-mouse IgG antibody was immobilized on the surface of a CM5 biosensor chip in the same fashion as described above for the anti-human IgG antibody. To evaluate the functionality of the recombinant <Dig> derivatives, binding of the recombinant hu<Dig> modules, incl.” for “antibody.”

Where [7] appears, read: analyte DIG-Myoglobin, listed as <DIG>M-19-11.

One may read the Kd as the equilibrium constant for the complex coming apart. Lower therefore signals tighter binding.

Where “and” joins values, the source holds several entries; their conditions need not be identical. Identical values can stand only once. Non-standard residues stand in square brackets, D forms with d. Residues, ends and D or L forms follow the SMILES beside them. No end group written: not given here. PEG3 = NCCOCCOCCOCCC(=O)O

For `CCN1c2ccc(S(=O)(=O)O)cc2C(C)(C)C1/C=C/C=C/C=C1\N(CCCCCC(=O)NCCNC(=O)CO[C@H]2CC[C@@]3(C)[C@H](CC[C@@H]4[C@@H]3C[C@@H](O)[C@]3(C)[C@@H](C5=CC(=O)OC5)CC[C@]43O)C2)c2ccc(S(=O)(=O)O)cc2C1(C)C` (stereo partly drawn) [Dig-Cy5], the “binding to Raji or Ramos cells (FACS)” value in data set [1] is given as “hardly any binding”. Also, the “tumor visualization by NIRF” value in data set [2] is reported as “no tumor specific fluorescence”. In addition, the “Emission wavelength (max.)” value in data set [3] is given as 670 nm.
As to `CC[C@H](C)[C@H](NC(=O)[C@H](CCCCN)NC(=O)[C@H](CCC(=O)O)NC(=O)[C@H](CCCCN)NC(=O)[C@H](CO)NC(=O)[C@H](CCCCN)NC(=O)[C@H](CCCNC(=N)N)NC(=O)[C@H](Cc1ccccc1)NC(=O)[C@H](Cc1ccccc1)NC(=O)[C@H](CC(=O)O)NC(=O)CNC(=O)[C@H](CC(C)C)NC(=O)[C@H](CC(C)C)NC(=O)[C@H](C)NC(=O)[C@H](Cc1ccccc1)NC(=O)[C@@H](N)CSC1CC(=O)N(CCNC(=O)CO[C@H]2CC[C@@]3(C)[C@H](CC[C@@H]4[C@@H]3C[C@@H](O)[C@]3(C)[C@@H](C5=CC(=O)OC5)CC[C@]43O)C2)C1=O)C(=O)NCC(=O)N[C@@H](CCCCN)C(=O)N[C@@H](CCC(=O)O)C(=O)N[C@@H](Cc1ccccc1)C(=O)N[C@@H](CCCCN)C(=O)N[C@@H](CCCNC(=N)N)C(=O)N[C@H](C(=O)N[C@H](C(=O)N[C@@H](CCC(N)=O)C(=O)N[C@@H](CCCNC(=N)N)C(=O)N[C@H](C(=O)N[C@@H](CCCCN)C(=O)N[C@@H](CC(=O)O)C(=O)N[C@@H](Cc1ccccc1)C(=O)N[C@@H](CC(C)C)C(=O)N[C@@H](CCCNC(=N)N)C(=O)N[C@@H](CC(N)=O)C(=O)N[C@@H](CC(C)C)C(=O)N[C@H](C(=O)N1CCC[C@H]1C(=O)N[C@@H](CCCNC(=N)N)C(=O)N[C@H](C(=O)N[C@@H](CCC(=O)O)C(=O)N[C@@H](CO)C(N)=O)[C@@H](C)O)C(C)C)[C@@H](C)CC)C(C)C)[C@@H](C)CC` (stereo partly drawn) [Dig-FALLv1], the “cytotoxicity when delivered by the <Her2>-<Dig> bispecific antibody, H322M compared to KPL4” value in data set [4] is “more toxic to cells expressing higher levels of surface antigen”.
With `CC[C@H](C)[C@H](NC(=O)[C@H](CCCCN)NC(=O)[C@H](CCC(=O)O)NC(=O)[C@H](CCCCN)NC(=O)[C@H](CO)NC(=O)[C@H](CCCCN)NC(=O)[C@H](CCCNC(=N)N)NC(=O)[C@H](Cc1ccccc1)NC(=O)[C@H](Cc1ccccc1)NC(=O)[C@H](CC(=O)O)NC(=O)CNC(=O)[C@H](CC(C)C)NC(=O)[C@H](CC(C)C)NC(=O)[C@H](C)NC(=O)[C@@H](N)Cc1ccccc1)C(=O)NCC(=O)N[C@@H](CCCCN)C(=O)N[C@@H](CCC(=O)O)C(=O)N[C@@H](Cc1ccccc1)C(=O)N[C@@H](CCCCN)C(=O)N[C@@H](CCCNC(=N)N)C(=O)N[C@H](C(=O)N[C@H](C(=O)N[C@@H](CCC(N)=O)C(=O)N[C@@H](CCCNC(=N)N)C(=O)N[C@H](C(=O)N[C@@H](CCCCN)C(=O)N[C@@H](CC(=O)O)C(=O)N[C@@H](Cc1ccccc1)C(=O)N[C@@H](CC(C)C)C(=O)N[C@@H](CCCNC(=N)N)C(=O)N[C@@H](CC(N)=O)C(=O)N[C@@H](CC(C)C)C(=O)N[C@H](C(=O)N1CCC[C@H]1C(=O)N[C@@H](CCCNC(=N)N)C(=O)N[C@H](C(=O)N[C@@H](CCC(=O)O)C(=O)N[C@@H](CO)C(N)=O)[C@@H](C)O)C(C)C)[C@@H](C)CC)C(C)C)[C@@H](C)CC` [FALLv1], in data set [4], the “cytotoxicity of the <Her2>-<Dig> complex towards antigen expressing target cells compared to non-complexed peptide” value is reported as “higher”.
For `CC[C@H](C)[C@H](NC(=O)[C@H](CCCNC(=N)N)NC(=O)[C@H](Cc1c[nH]cn1)NC(=O)[C@@H](NC(=O)[C@H](CCCCN)NC(=O)[C@H](CCCCN)NC(=O)[C@H](Cc1ccccc1)NC(=O)[C@H](CC(C)C)NC(=O)[C@@H](NC(=O)[C@H](CCCCN)NC(=O)[C@H](CC(C)C)NC(=O)CNC(=O)[C@H](C)NC(=O)CNC(=O)[C@H](CC(C)C)NC(=O)[C@H](CCC(N)=O)NC(=O)[C@H](CCC(N)=O)NC(=O)[C@H](Cc1ccc(O)cc1)NC(=O)[C@H](CCCNC(=N)N)NC(=O)[C@H](Cc1c[nH]cn1)NC(=O)[C@@H](N)CCC(N)=O)C(C)C)[C@@H](C)O)C(=O)N[C@@H](CC(C)C)C(=O)N[C@@H](CCCNC(=N)N)C(=O)N[C@@H](CCCNC(=N)N)C(=O)N[C@@H](CC(C)C)C(=O)N[C@@H](Cc1ccccc1)C(=O)N[C@@H](CC(N)=O)C(=O)N[C@@H](CC(C)C)C(=O)N[C@@H](C)C(=O)N[C@@H](CCCCN)C(=O)O` [Fam5b] (H-QHRYQQLGAGLKVLFKKTHRILRRLFNLAK-OH), in data set [4], the “cytotoxicity of the <Her2>-<Dig> complex towards antigen expressing target cells compared to non-complexed peptide” value is listed as “higher”.
Take Cy5 [reference compound]: the “Emission wavelength (max.)” value in data set [3] was found to be 670 nm.
Turning to “DIG-Fam5b: digoxigenin conjugate of Fam5b with TEG-spacer and amino-terminal cystein (C[PEG3]QHRYQQLGAGLKVLFKKTHRILRRLFNLAK; also: digoxigenin conjugate, attachment site not given here)”, the “cytotoxicity when delivered by the <Her2>-<Dig> bispecific antibody, H322M compared to KPL4” value in data set [4] is reported as “correlates with the levels of surface antigen”.

B1: murine DIG-IgG 19-11: murine <Dig> IgG1 kappa from mouse hybridoma clone 19-11; VL Seq. ID. NO. 1, VH Seq. ID. NO. 2 (antibody, listed as Mus musculus, V domains shown)
VH: MNFVLSLIFLALILKGVQCEVQLVESGGGLVKPGGSLKLSCAVSGFTFSDYAMSWIRQTPENRLEWVASINIGATYAYYPDSVKGRFTISRDNAKNTLFLQMSSLGSEDTAMYYCARPGSPYEYDKAYYSMAYWGPGTSVTVSS
VL: MSSAQFLGLLLLCFQGTRCDVQMTQSTSSLSASLGDRVTISCRASQDIKNYLNWYQQKPGGTVKLLIYYSSTLLSGVPSRFSGRGSGTDFSLTITNLEREDIATYFCQQSITLPPTFGGGTKLEIK
notes: murine <Dig> IgG1 kappa from mouse hybridoma clone 19-11; ID; NO
With B1, the ka in the data set with DIG-siRNA2349 is 3.27e+06 M⁻¹ s⁻¹ and 2.26e+06 M⁻¹ s⁻¹; in the data set with DIG-Myoglobin (setting [7]) it was 1.75e+06 M⁻¹ s⁻¹ and 2.28e+06 M⁻¹ s⁻¹. The kd is 0.000903 s⁻¹ and 0.000838 s⁻¹ at DIG-siRNA2349; 0.000676 s⁻¹ and 0.000675 s⁻¹ at DIG-Myoglobin (setting [7]). For the same molecule, the equilibrium dissociation constant (Kd) in data set [5] was found to be 269 pM; in data set [6], 17 pM. Further, the “affinity to DIG-myoglobin relative to <DIG>-hu2 and disulfide-stabilized <DIG> scFv” value with DIG-Myoglobin is “about a hundred fold better”.
